Measured values: the supplement of paper PMC7125110
± gives the standard error. This sample holds only a part of the variants without activity.

B1: glmS ribozyme (parent)
chain: AUAAAAGCGCCAGAACUACAGAAAUGUAGUUGACGAGGAGGAGGUUUAUCGAAUUUUCGGCGGAUGCCUCCAAA

Assays:
Settings in all cases: with glucosamine-6-phosphate
[1] = variants of: B1; test: self-cleavage kobs at 40 uM GlcN6P; higher = faster cleavage; RNA array
Procedure, shortened: (§1)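 Tracking of barcoded ribozyme variants used a hybridised Cy3 probe at 37 °C, after in situ transcription by E. coli RNA polymerase on sequenced MiSeq chips. The flowed solution held 40 μM to 10 mM glucosamine-6-phosphate in HEPES/KCl/Mg(OAc)2 buffer, and imaging ran over ~14 h. kobs was taken from exponential decay fits of normalised per-tile medians, and kcat and KM from weighted Michaelis–Menten fits.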

[2] = variants of: B1; test: self-cleavage kobs at 10000 uM GlcN6P; higher = faster cleavage; RNA array
Procedure, shortened: as §1

[3] = variants of: B1; test: self-cleavage kobs at 640 uM GlcN6P; higher = faster cleavage; RNA array
Procedure, shortened: as §1

[4] = variants of: B1; test: self-cleavage kobs at 2500 uM GlcN6P; higher = faster cleavage; RNA array
Procedure, shortened: as §1

[5] = variants of: B1; test: self-cleavage kobs at 160 uM GlcN6P; higher = faster cleavage; RNA array
Procedure, shortened: as §1

Variant	self-cleavage kobs at 40 uM GlcN6P [1] [s⁻¹]	self-cleavage kobs at 10000 uM GlcN6P [2] [s⁻¹]	self-cleavage kobs at 640 uM GlcN6P [3] [s⁻¹]	self-cleavage kobs at 2500 uM GlcN6P [4] [s⁻¹]	self-cleavage kobs at 160 uM GlcN6P [5] [s⁻¹]
A12C A20U C67G	9.99e-05 ± 2.5e-05	0.00115 ± 0.00024	–	–	–
U31G G32U	5.84e-05 ± 1e-05	0.00232 ± 0.00036	0.000363 ± 7.2e-05	0.000925 ± 0.00026	–
C10G U45G	< 1e-05	< 1e-05	< 1e-05	< 1e-05	< 1e-05
A14U A33G	< 1e-05	< 1e-05	< 1e-05	–	–
A15G U56G	0.000419 ± 4.9e-05	0.0296 ± 0.0053	0.00325 ± 0.00045	0.00559 ± 0.00073	0.000989 ± 0.00014
U49C G63C	< 1e-05	–	< 1e-05	–	–
G13C A33C G41U	< 1e-05	< 1e-05	< 1e-05	< 1e-05	< 1e-05
G43C U65A	< 1e-05	–	< 1e-05	< 1e-05	–
A6C G62A G66C U69A	< 1e-05	< 1e-05	–	–	–
G40A G51A	< 1e-05	< 1e-05	< 1e-05	< 1e-05	< 1e-05
A12C C16G	8.16e-05 ± 1.1e-05	0.00517 ± 0.00083	0.00067 ± 0.00012	0.00161 ± 0.00035	0.000158 ± 3.6e-05
G40U G59C	< 1e-05	–	< 1e-05	–	–
A42G U47G G63U	< 1e-05	–	–	–	–
C50G C67A C71A	5.33e-05 ± 1.4e-05	6e-05 ± 1.6e-05	0.0002 ± 3.8e-05	8.26e-05 ± 1.6e-05	0.000226 ± 3.6e-05
C8G G13U G21A U30A	< 1e-05	< 1e-05	–	–	–
A36C U45A	< 1e-05	< 1e-05	–	–	< 1e-05
C11A U57A G60U	< 1e-05	–	–	–	–
G41C G60A	< 1e-05	< 1e-05	< 1e-05	–	–
G51C U69C	< 1e-05	< 1e-05	–	< 1e-05	–
A6C A48C	< 1e-05	< 1e-05	< 1e-05	< 1e-05	< 1e-05
